± gives the uncertainty stated by the source.
Assay: protein stability index of a GFP-peptide fusion (yeast GPS) (PSI 1-4); higher = more stable; sorted into four equal gates, so the index is relative within each strain
Conditions: doa10∆
Method in brief: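 For each peptide, the protein stability index sums the read frequency in every gate after multiplying it by the gate number. Read frequencies came from plasmids that were PCR-amplified from each gate and Illumina-sequenced, with reads assigned to strains by barcodes. The gates were four equal bins of GFP/Cherry fluorescence ratio applied to mid-log yeast in leucine-free medium carrying a pooled library of tiled 17-residue yeast protein peptides fused downstream of GFP on a Cherry-expressing plasmid.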
Work on EIMQQKFPATNVTTILD [ECM29] yielded a protein stability index of 2.41 ± 0.061.
Sequence EIQPRANIQLDFPELKP [FAS2] has a protein stability index of 3.13 ± 0.064.
EIRRFQKSTELLIRKLP [HHT1] showed a protein stability index of 2.64 ± 0.13.
Work on EIVNMVPSHVPQVLINR [SIR2] yielded a protein stability index of 3.13 ± 0.11.
In the case of EIVRDILHTKESSNEAK [SIR4], the protein stability index is reported as 2.75 ± 0.067.
Sequence EKDAKINKLMEKDFQVN [SIR4] has a protein stability index of 3.22 ± 0.067.
EKDLEHWLQLAKGVYRP [POP1] gave a protein stability index of 2.64 ± 0.072.
EKELKIFTDAGRVYRPL [RPB2] gave a protein stability index of 3.04 ± 0.067.
EKESDDGLLEYLEDIIG [SMC4] showed a protein stability index of 3.47 ± 0.091.
In the case of EKIFHYGHVFLGITGLA [PUP3], the protein stability index is reported as 1.17 ± 0.086.
Work on EKIMENKYPELLGKDNE [AAR2] yielded a protein stability index of 3.04 ± 0.073.
EKKLEDYCRILSDIETA [YGL172W/NUP49] gave a protein stability index of 1.75 ± 0.11.
Sequence EKLDVSRSSVCVKAIEA [YCG1] has a protein stability index of 2.54 ± 0.065.
EKPLTPLKYTKLIAAAE [SNF6] gave a protein stability index of 1.25 ± 0.23.
Sequence EKRHKNVPVHVSPAFRV [RPS11A] has a protein stability index of 1.8 ± 0.051.
EKSTQLQQKHELDTASR [YGR119C/NUP57] gave a protein stability index of 2.95 ± 0.044.
With EKTFLHLPCTIEAEEAE [RPN8] the protein stability index was 1.56 ± 0.078.
In the case of EKTMVKKNLGRLTRLWI [PRP8], the protein stability index is reported as 2.28 ± 0.13.
With EKWISSKNSKLSIICVG [SIR3] the protein stability index was 1.82 ± 0.091.
With EKWLLNQIPVTEHSKVT [SRB6] the protein stability index was 1.9 ± 0.051.
ELALKTLSKTTDSSALT [PRE9] showed a protein stability index of 2.62 ± 0.057.
Sequence ELAQDPQTMEHYKQQIA [YCS4] has a protein stability index of 2.31 ± 0.055.
For ELDQEYRSCETQDESEI [SMC4], the protein stability index was 3.11 ± 0.12.
With ELGVSIYDFPGTPEATK [NUT2] the protein stability index was 2.92 ± 0.076.
In the case of ELKEITSLPDWCQEAFP [BRR2], the protein stability index is reported as 2.86 ± 0.069.
In the case of ELKNELAKTKENYDAKI [YIL149C/MLP2], the protein stability index is reported as 3.22 ± 0.073.
ELKYQRSLRATAEERVG [RPL15A] showed a protein stability index of 1.27 ± 0.083.
ELLETVSLTKRKQEREI [YIL149C/MLP2] showed a protein stability index of 1.43 ± 0.095.
ELLIYKKSQCKKKTTLE [YIL149C/MLP2] gave a protein stability index of 3.03 ± 0.21.
In the case of ELNDLKWGRNQPVNINL [YMR129W/POM152], the protein stability index is reported as 2.8 ± 0.1.
In the case of ELNIIPRDLLRVIIQEL [PRP28], the protein stability index is reported as 1.15 ± 0.062.
ELPTQLALEIIVRPAKG [RRP46] showed a protein stability index of 1.52 ± 0.041.
ELQMRSFLKEGDLLNAE [RRP4] showed a protein stability index of 2.71 ± 0.071.
ELSIRDVTHTLGMLDDN [SMC4] gave a protein stability index of 3.13 ± 0.091.
ELSKSRALQENGIIMNG [YMR153W/NUP53] showed a protein stability index of 2.63 ± 0.16.
In the case of ELSVTGSAINHHRIFDS [YMR129W/POM152], the protein stability index is reported as 3.02 ± 0.12.
In the case of ELSVVLSGIIQDIYYLA [RRI2], the protein stability index is reported as 2.32 ± 0.12.
Work on ELVRLLIIDEIHLLHDD [BRR2] yielded a protein stability index of 2.17 ± 0.11.
Sequence ELYEVDVLKVNTLVRPN [RPL25] has a protein stability index of 2.52 ± 0.095.
EMEVDAEGEEVEVKAEI [RPN1] showed a protein stability index of 3.48 ± 0.091.
ENDAKKSKGDVDIKGED [NUT1] showed a protein stability index of 3.18 ± 0.12.
For ENDIEIKGPEFKFSGTV [YLR335W/NUP2], the protein stability index was 2.72 ± 0.14.

Same assay, conditions: pdr5∆
With EIMQQKFPATNVTTILD [ECM29] the protein stability index was 2.47 ± 0.055.
With EIQPRANIQLDFPELKP [FAS2] the protein stability index was 3.11 ± 0.063.
Sequence EIRRFQKSTELLIRKLP [HHT1] has a protein stability index of 2.74 ± 0.095.
Work on EITEKKNGESLEGEEIK [RPN1] yielded a protein stability index of 3.03 ± 0.3.
For EIVNMVPSHVPQVLINR [SIR2], the protein stability index was 2.93 ± 0.079.
With EIVRDILHTKESSNEAK [SIR4] the protein stability index was 2.96 ± 0.074.
For EKDAKINKLMEKDFQVN [SIR4], the protein stability index was 3.44 ± 0.07.
EKDLEHWLQLAKGVYRP [POP1] showed a protein stability index of 3 ± 0.067.
EKELKIFTDAGRVYRPL [RPB2] gave a protein stability index of 3.44 ± 0.082.
For EKESDDGLLEYLEDIIG [SMC4], the protein stability index was 3.31 ± 0.075.
EKIFHYGHVFLGITGLA [PUP3] gave a protein stability index of 1.34 ± 0.094.
EKIMENKYPELLGKDNE [AAR2] gave a protein stability index of 3.24 ± 0.062.
In the case of EKKLEDYCRILSDIETA [YGL172W/NUP49], the protein stability index is reported as 3.14 ± 0.09.
EKLDVSRSSVCVKAIEA [YCG1] gave a protein stability index of 2.16 ± 0.058.
In the case of EKPLTPLKYTKLIAAAE [SNF6], the protein stability index is reported as 1.27 ± 0.12.
With EKRHKNVPVHVSPAFRV [RPS11A] the protein stability index was 2.72 ± 0.077.
Sequence EKSTQLQQKHELDTASR [YGR119C/NUP57] has a protein stability index of 3.06 ± 0.039.
With EKTFLHLPCTIEAEEAE [RPN8] the protein stability index was 2.05 ± 0.071.
With EKTGKSASLKKIQQHNT [BRR2] the protein stability index was 2.96 ± 0.2.
In the case of EKTMVKKNLGRLTRLWI [PRP8], the protein stability index is reported as 3.07 ± 0.12.
With EKWISSKNSKLSIICVG [SIR3] the protein stability index was 1.52 ± 0.075.
For EKWLLNQIPVTEHSKVT [SRB6], the protein stability index was 2.6 ± 0.068.
Work on ELALKTLSKTTDSSALT [PRE9] yielded a protein stability index of 2.1 ± 0.06.
Work on ELAQDPQTMEHYKQQIA [YCS4] yielded a protein stability index of 2.65 ± 0.077.
Work on ELDQEYRSCETQDESEI [SMC4] yielded a protein stability index of 3.24 ± 0.21.
For ELGVSIYDFPGTPEATK [NUT2], the protein stability index was 3.06 ± 0.098.
ELKEITSLPDWCQEAFP [BRR2] gave a protein stability index of 2.73 ± 0.076.
With ELKNELAKTKENYDAKI [YIL149C/MLP2] the protein stability index was 3.43 ± 0.071.
For ELKYQRSLRATAEERVG [RPL15A], the protein stability index was 1.48 ± 0.11.
ELLETVSLTKRKQEREI [YIL149C/MLP2] gave a protein stability index of 1.61 ± 0.07.
ELLIYKKSQCKKKTTLE [YIL149C/MLP2] showed a protein stability index of 3.29 ± 0.13.
Sequence ELNDLKWGRNQPVNINL [YMR129W/POM152] has a protein stability index of 2.72 ± 0.086.
For ELNIIPRDLLRVIIQEL [PRP28], the protein stability index was 1.4 ± 0.061.
ELPTQLALEIIVRPAKG [RRP46] gave a protein stability index of 1.57 ± 0.044.
In the case of ELQMRSFLKEGDLLNAE [RRP4], the protein stability index is reported as 3.27 ± 0.11.
Work on ELSIRDVTHTLGMLDDN [SMC4] yielded a protein stability index of 3.04 ± 0.082.
With ELSKSRALQENGIIMNG [YMR153W/NUP53] the protein stability index was 2.85 ± 0.13.
In the case of ELSVTGSAINHHRIFDS [YMR129W/POM152], the protein stability index is reported as 3.24 ± 0.1.
ELSVVLSGIIQDIYYLA [RRI2] showed a protein stability index of 2.24 ± 0.14.
Sequence ELVRLLIIDEIHLLHDD [BRR2] has a protein stability index of 1.63 ± 0.075.
In the case of ELYEVDVLKVNTLVRPN [RPL25], the protein stability index is reported as 2.67 ± 0.099.
EMEVDAEGEEVEVKAEI [RPN1] gave a protein stability index of 3.74 ± 0.24.

— the supplement of paper PMC9732359
